Experiment [1] deals with mouse PVRL2 endogenously expressed on B16-F10 cells (mouse) (UniProt P32507). The experiment in a line: FACS dose response on B16-F10 cells.
In experiment [2] the target is mouse PVRL2 splice variant 2 on HEK293 cells (mouse). Put plainly: FACS dose response on HEK293 OX mouse PVRL2.

Here are results for 1 substance from US20250333503A1.

mouse PVRL2 endogenously expressed on B16-F10 cells (mouse), sequence (P32507 32-530): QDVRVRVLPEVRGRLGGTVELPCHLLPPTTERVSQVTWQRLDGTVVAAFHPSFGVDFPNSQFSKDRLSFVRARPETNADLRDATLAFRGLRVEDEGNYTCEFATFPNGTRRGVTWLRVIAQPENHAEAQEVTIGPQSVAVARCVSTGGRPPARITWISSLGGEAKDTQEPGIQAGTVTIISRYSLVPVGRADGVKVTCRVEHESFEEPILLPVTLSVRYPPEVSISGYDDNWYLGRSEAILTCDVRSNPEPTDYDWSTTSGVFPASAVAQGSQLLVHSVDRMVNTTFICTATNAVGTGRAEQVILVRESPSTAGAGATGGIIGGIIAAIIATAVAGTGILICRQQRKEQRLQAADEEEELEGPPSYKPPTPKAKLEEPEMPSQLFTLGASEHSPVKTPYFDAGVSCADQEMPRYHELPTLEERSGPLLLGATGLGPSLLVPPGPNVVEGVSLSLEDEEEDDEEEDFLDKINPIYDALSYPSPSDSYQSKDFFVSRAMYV

As to “PVRIG mECD-mIg fusion protein (ECD of mouse PVRIG fused to Fc of mouse IgG2a) (Fc fusion)”, the concentration at saturation of binding in experiment [1] and in experiment [2] was 12.5 µg/mL each time.
